Experimental data taken from patent US20020123082A1 (NEW YORK UNIVERSITY, published 2002).
Blank lines part the entries; values can stand above or below the binder they belong to. Non-standard residues stand in square brackets, D forms with d. No end group written: not given here. pY = N[C@@H](Cc1ccc(OP(=O)(O)O)cc1)C(=O)O; pT = C[C@@H](OP(=O)(O)O)[C@H](N)C(=O)O

B4: phospho-p27 peptide NAGSVEQT*PKKPGLRRRQT (peptide)
peptide: NAGSVEQ[pT]PKKPGLRRRQT
notes: Coupled to Sepharose beads; 19 C-terminal residues of p27; also called phospho-T187 p27 peptide; p27 phosphopeptide

Legend:
[1] = molecular target: human Skp1 (endogenous, HeLa cells) (human, UniProt P63208 2-163); experiment: HeLa cell extract on peptide beads, RIPA wash, immunoblot
Sequence of human Skp1 (endogenous, HeLa cells) (P63208 2-163 limits assumed): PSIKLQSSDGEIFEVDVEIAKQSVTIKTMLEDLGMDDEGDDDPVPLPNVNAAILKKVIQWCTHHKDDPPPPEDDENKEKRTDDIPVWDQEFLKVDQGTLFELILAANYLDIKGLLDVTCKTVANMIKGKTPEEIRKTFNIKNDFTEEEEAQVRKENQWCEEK
Protocol: (§1) Beads were washed with RIPA buffer and bound proteins were immunoblotted with antibodies to the proteins indicated on the left of each panel. A portion of the HeLa extract (25 μg) was used as a control (lane 4). […] C. […] Beads were washed with RIPA buffer and bound proteins subjected to electrophoresis and autoradiography.
(§2) Proteins stably associated with the beads were examined by immunoblotting.

human Cul1 (endogenous) [2] = molecular target: T1, human Cul1 (endogenous) (human, UniProt Q13616 1-776); experiment: as above
T1 construct: A slower migrating form is said to be likely modified by a ubiquitin-like molecule
T1 sequence (Q13616 whole entry): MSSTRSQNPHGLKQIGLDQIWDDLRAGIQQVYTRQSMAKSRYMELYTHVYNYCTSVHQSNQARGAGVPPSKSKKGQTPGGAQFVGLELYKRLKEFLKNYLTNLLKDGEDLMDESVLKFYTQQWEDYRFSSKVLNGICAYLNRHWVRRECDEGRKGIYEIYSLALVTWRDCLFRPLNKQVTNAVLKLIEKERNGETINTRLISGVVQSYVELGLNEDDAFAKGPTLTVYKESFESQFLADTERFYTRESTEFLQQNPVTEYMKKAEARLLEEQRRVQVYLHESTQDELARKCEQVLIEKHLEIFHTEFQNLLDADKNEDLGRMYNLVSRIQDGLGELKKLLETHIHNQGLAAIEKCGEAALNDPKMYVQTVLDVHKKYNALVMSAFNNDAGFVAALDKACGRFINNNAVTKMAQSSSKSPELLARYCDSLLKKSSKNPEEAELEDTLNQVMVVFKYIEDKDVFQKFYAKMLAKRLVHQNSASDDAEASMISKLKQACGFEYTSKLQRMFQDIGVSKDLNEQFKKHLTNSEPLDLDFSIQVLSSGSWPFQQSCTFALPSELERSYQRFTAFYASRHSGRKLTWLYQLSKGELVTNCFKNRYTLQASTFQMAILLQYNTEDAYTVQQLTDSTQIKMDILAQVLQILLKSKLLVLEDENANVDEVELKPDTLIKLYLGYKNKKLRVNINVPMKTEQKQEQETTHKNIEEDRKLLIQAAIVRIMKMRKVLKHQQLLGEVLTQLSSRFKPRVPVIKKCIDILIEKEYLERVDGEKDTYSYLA
Protocol: as §1, §2

human F-box protein Skp2 = molecular target: T2, human F-box protein Skp2 (human, UniProt Q13309 1-424); experiment: as above
T2 construct: Used as in vitro translated 35S-Skp2, as endogenous protein of HeLa and IMR90 extracts and as untagged baculovirus protein; also called S-phase kinase-associated protein 2
T2 sequence (Q13309 whole entry): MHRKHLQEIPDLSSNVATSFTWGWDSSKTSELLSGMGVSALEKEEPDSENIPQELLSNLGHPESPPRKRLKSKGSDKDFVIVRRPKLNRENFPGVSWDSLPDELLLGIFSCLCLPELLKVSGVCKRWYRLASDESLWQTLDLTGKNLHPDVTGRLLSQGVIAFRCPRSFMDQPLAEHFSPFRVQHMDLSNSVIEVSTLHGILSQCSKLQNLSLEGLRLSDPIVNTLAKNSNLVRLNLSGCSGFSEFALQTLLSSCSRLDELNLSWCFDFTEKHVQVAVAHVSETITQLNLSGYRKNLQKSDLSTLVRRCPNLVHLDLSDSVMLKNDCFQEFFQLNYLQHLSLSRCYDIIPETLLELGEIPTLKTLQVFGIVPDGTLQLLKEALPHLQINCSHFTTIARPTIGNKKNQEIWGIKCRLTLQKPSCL
Protocol: as §1, §2

human Cul1 (endogenous) [3] = molecular target: T1, human Cul1 (endogenous); experiment: anti-Flag co-immunoprecipitation from transfected HeLa cells, anti-Cul1 immunoblot
Text: HeLa cells were transfected with mammalian expression plasmids encoding Flag-tagged versions of FBP1 (lane 1), (ΔF)FBP1 (lane 2), FBP4 (lane 3), FBP7 (lane 5), FBP2 (lane 7), (ΔF)FBP2 (lane 8), FBP3a (lane 9), (ΔF)FBP3a (lane 10), or with an empty vector (lanes 4 and 6). Cells were lysed and extracts were subjected to immunoprecipitation with a rabbit anti-Flag antibody (lanes 1-8). Immunoprecipitates were then immunoblotted with a mouse anti-Cul1 monoclonal antibody, a rabbit anti-Skp1 polyclonal antibody or a rabbit anti-Cul2 polyclonal antibody, as indicated. The last lane contains 25 μg of extracts from non-transfected HeLa cells; […] contains recombinant Cul1, Skp1, or Cul2 proteins used as markers.

His-tagged Elongin C = His-tagged Elongin C (human, UniProt Q15369 1-112); experiment: pull-down of in vitro translated 35S-FBP on His-Elongin C Nickel-agarose beads
Sequence of His-tagged Elongin C (Q15369 whole entry): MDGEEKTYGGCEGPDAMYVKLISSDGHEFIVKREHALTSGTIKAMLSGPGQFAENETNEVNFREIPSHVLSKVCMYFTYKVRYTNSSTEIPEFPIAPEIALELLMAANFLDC
Protocol: FIG. 29. FBPs interact specifically with Skp1 through their F-box. The cDNAs of FBPs (wild type and mutants) were transcribed and translated in vitro (IVT) in the presence of 35S- methionine. […] Bound IVT proteins were analyzed by SDS-PAGE and autoradiography. The arrows on the left side of the panels point to the indicated FBPs. The apparent molecular weights of the protein standards are indicated on the right side of the panels.
As examples of the human FBP family, a more detailed characterization of some FBPs was performed. To confirm the specificity of interaction between the novel FBPs and human Skp1, eight in vitro translated FBPs were tested for binding to His-tagged-Skp1 pre-bound to Nickel-agarose beads. As a control Elongin C was used, the only known human Skp1 homolog.

[4] = molecular target: B4; experiment: in vitro translated 35S-FBP on phospho-p27 peptide Sepharose beads, RIPA wash, autoradiography
Protocol: (§3) FIG. 37A-C. […] Beads were washed with RIPA buffer and bound proteins were eluted and subjected to electrophoresis and autoradiography (Upper Panel). Bottom Panel: 10% of the in vitro translated [35S]FBP inputs. […] Beads were washed with RIPA buffer and bound proteins were immunoblotted with antibodies to the proteins indicated on the left of each panel. A portion of the HeLa extract (25 μg) was used as a control (lane 4). […] C. […] Beads were washed with RIPA buffer and bound proteins subjected to electrophoresis and autoradiography.

human F-box protein FBP1 = molecular target: T3, human F-box protein FBP1 (human, UniProt Q9Y297 1-605); experiment: as above
T3 sequence: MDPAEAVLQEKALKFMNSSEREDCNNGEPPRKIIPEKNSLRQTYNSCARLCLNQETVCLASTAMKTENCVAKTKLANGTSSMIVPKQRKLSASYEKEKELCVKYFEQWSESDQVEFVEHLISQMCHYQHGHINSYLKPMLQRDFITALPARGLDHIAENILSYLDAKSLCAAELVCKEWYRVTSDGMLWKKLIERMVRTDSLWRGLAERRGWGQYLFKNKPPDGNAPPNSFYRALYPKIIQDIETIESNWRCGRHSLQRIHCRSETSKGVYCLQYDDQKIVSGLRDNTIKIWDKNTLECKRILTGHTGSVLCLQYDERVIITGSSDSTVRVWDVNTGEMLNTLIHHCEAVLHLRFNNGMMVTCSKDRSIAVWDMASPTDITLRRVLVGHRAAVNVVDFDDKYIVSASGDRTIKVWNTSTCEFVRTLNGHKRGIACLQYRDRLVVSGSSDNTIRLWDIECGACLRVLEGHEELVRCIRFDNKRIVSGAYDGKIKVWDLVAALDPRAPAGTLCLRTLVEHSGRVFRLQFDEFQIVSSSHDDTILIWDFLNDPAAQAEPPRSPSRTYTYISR
Protocol: as §3

human F-box protein FBP2 = molecular target: T4, human F-box protein FBP2 (human, UniProt Q9UKT8 1-419, limits assumed); experiment: as above
T4 sequence: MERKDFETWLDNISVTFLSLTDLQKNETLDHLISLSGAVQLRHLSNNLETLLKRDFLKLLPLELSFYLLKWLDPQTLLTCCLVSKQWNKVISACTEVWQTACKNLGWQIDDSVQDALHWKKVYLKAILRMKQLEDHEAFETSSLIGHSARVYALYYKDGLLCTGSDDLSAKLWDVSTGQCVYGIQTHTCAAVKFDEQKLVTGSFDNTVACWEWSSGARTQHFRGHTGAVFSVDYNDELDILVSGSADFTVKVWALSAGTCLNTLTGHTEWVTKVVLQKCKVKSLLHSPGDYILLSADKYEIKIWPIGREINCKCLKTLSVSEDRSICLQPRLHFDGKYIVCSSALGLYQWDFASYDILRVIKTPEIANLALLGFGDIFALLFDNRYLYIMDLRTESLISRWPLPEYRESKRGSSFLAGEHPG
Protocol: as §3

[5] = molecular target: T5, human F-box protein FBP3a (human, UniProt Q9UKT7 1-428); experiment: as above
T5 sequence: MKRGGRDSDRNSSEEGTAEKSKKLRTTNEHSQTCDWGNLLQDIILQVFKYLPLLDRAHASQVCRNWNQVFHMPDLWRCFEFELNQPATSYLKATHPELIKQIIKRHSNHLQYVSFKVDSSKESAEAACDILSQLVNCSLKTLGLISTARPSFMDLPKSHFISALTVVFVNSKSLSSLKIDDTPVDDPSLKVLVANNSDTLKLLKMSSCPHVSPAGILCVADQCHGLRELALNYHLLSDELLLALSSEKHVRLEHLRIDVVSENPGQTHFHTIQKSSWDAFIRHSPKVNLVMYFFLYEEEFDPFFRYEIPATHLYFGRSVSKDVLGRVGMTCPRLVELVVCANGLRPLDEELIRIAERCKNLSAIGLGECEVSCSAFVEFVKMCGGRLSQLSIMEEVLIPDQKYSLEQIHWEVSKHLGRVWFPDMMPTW
Protocol: as §3

human F-box protein FBP5 = molecular target: T6, human F-box protein FBP5 (human, UniProt Q9UKT4 1-447); experiment: as above
T6 construct: Gal4 AD fusion in the two-hybrid screen; the clone appeared to be full length
T6 sequence: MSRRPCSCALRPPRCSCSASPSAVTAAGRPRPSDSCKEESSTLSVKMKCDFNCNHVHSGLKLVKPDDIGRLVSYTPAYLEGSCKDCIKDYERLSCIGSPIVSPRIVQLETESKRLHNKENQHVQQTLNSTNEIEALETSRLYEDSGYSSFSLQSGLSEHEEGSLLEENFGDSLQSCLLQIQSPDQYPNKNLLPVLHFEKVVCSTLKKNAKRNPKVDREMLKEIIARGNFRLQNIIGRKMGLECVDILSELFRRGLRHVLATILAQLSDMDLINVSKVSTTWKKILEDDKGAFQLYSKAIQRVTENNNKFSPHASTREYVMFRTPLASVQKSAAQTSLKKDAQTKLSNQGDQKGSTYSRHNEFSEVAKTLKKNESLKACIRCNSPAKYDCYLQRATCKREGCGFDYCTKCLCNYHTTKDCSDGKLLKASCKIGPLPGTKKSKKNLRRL
Protocol: as §3

B1: control phospho-peptide AEIGVGAY*GTVYKARDPHS of human Cdk4 (peptide)
peptide: AEIGVGA[pY]GTVYKARDPHS
notes: Coupled to beads; also called unrelated phospho-peptide
- binding result [1]: no binding
- binding result (human Cul1 (endogenous) [2]): no binding
- binding result (human F-box protein Skp2): no binding

Binder: B4
- binding result (human F-box protein FBP1): no binding
- binding result (human F-box protein FBP2): no binding
- binding result [5]: no binding
- binding result (human F-box protein FBP5): no binding

The next lines start with the values.

- binding result (human Cul1 (endogenous) [3]): no binding
B2: Flag-tagged (ΔF)FBP3a (other, not shown: small tags and cut ends)
chain: MKRGGRDSDRNSSEEGTAEKSKKLRTTNEHSQTCDWGNLRCFEFELNQPATSYLKATHPELIKQIIKRHSNHLQYVSFKVDSSKESAEAACDILSQLVNCSLKTLGLISTARPSFMDLPKSHFISALTVVFVNSKSLSSLKIDDTPVDDPSLKVLVANNSDTLKLLKMSSCPHVSPAGILCVADQCHGLRELALNYHLLSDELLLALSSEKHVRLEHLRIDVVSENPGQTHFHTIQKSSWDAFIRHSPKVNLVMYFFLYEEEFDPFFRYEIPATHLYFGRSVSKDVLGRVGMTCPRLVELVVCANGLRPLDEELIRIAERCKNLSAIGLGECEVSCSAFVEFVKMCGGRLSQLSIMEEVLIPDQKYSLEQIHWEVSKHLGRVWFPDMMPTW
notes: pcDNA3 construct, Flag tag at the C-terminus; also called Flag-tagged (deltaF)FBP3a

- binding result (His-tagged Elongin C): no binding
- binding result [4]: no binding
B3: human F-box protein FBP7 (other)
chain: MSNTRFTITLNYKDPLTGDEETLASYGIVSGDLICLILHDDIPPPNIPSSTDSEHSSLQNNEQPSLATSSNQTSIQDEQPSDSFQGQAAQSGVWNDDSMLGPSQNFEAESIQDNAHMAEGTGFYPSEPLLCSESVEGQVPHSLETLYQSADCSDANDALIVLIHLLMLESGYIPQGTEAKALSLPEKWKLSGVYKLQYMHHLCEGSSATLTCVPLGNLIVVNATLKINNEIRSVKRLQLLPESFICKEKLGENVANIYKDLQKLSRLFKDQLVYPLLAFTRQALNLPNVFGLVVLPLELKLRIFRLLDVRSVLSLSAVCRDLFTASNDPLLWRFLYLRDFRDNTVRVQDTDWKELYRKRHIQRKESPKGRFVLLLPSSTHTIPFYPNPLHPRPFPSSRLPPGIIGGEYDQRPTLPYVGDPISSLIPGPGETPSQLPPLRPRFDPVGPLPGPNPILPGRGGPNDRFPFRPSRGRPTDGRLSFM
